# How the values were obtained:
# [1] = biological target: MART-1 peptide … (ELA) presented by HLA-A2 on peptide-pulsed T2 cells; assay: cell-based or functional assay
# [2] = biological target: CD3 of the TCR-CD3 complex on human T cells (human) (UniProt P07766); assay: cell-based or functional assay
Substance,"NFAT-GFP in Jurkat cells co-cultured overnight with ELA-pulsed T2 cells, against WT Jkt-DMF5 [1]","NFAT-GFP in Jkt-DMF5FATADALN cells co-cultured with Raji (CD19+) cells and blinatumomab, against WT Jkt-DMF5 [2]","NFAT-GFP in Jkt-DMF5GGGSGSG cells co-cultured with Raji (CD19+) cells and blinatumomab, against WT Jkt-DMF5 [2]"
DMF5 TCR with alpha chain connecting peptide motif mutated to GGGSGSG,50 % reduction,,
blinatumomab (bispecific antibody),,< 80 % reduction,< 80 % reduction
